From patent publication US6447996

Target: human galanin receptor GalR1 (human) (UniProt P47211)
Experiment: competition with 5x10^-11M [125I]galanin on membranes of Cos1 cells transfected with GalR1; Cheng-Prusoff

Sequence of UniProt P47211 (P47211 other isoform, or with tags, fused parts or gaps): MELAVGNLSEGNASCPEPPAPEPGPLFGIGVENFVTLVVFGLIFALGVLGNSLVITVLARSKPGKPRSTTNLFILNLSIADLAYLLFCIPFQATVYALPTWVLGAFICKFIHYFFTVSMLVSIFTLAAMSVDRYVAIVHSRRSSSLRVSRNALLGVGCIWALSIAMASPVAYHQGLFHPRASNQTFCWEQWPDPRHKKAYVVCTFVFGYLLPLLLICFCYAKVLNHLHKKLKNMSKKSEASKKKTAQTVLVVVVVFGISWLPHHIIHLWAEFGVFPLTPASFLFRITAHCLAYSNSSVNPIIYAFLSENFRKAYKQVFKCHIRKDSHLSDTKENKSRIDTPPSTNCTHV

For galanin 2-29 (peptide), the Ki was 115 nM.
